Reference: article PMC4529233, “In Silico Generation of Peptides by Replica Exchange Monte Carlo: Docking-Based Optimization of Maltose-Binding-Protein Ligands” (PLoS ONE, 2015)
Like-named read-outs stand apart in the source and are kept apart here. No end group written: not given here.

Legend:
MBP [1] = target: T1, MBP (Escherichia coli, UniProt P0AEX9); assay: Surface Plasmon Resonance, immobilized MBP, peptides as analytes; format: binding; conditions: for SPR signal variations in the explored concentration range: dose response assay
T1 construct: made in house; host or cells: E. coli BL21(DE3)
Method: The interactions between the protein and computationally optimized peptides were measured using the BIAcore 3000 (GE Healthcare Milano, Italy). […] Residual reactive groups were deactivated by treatment with 1 M ethanolamine hydrochloride, pH 8.5. The reference channel was activated with EDC/NHS and deactivated with ethanolamine. The binding assays were carried out at 20 μL /min at 25°C, with 4.5 min contact-time. Peptides were diluted in the HBS running buffer (10 mM Hepes, 150 mM NaCl, 3 mM EDTA, pH 7.4). Analyte injections were performed at the indicated concentrations. The sensor surface was regenerated by using 1–3 washes of 10mM NaOH for 1 minute. The association phase (kon) was followed for 250s, whereas the dissociation phase (koff) was followed for 300 s. The instrument BIAevaluation analysis package (version 4.1, GE Healthcare, Milano, Italy) was used to subtract the signal of the reference channel. Conversely, an affinity steady state model was applied to fit the RUmax data versus peptides concentrations and fitting was performed with GraphPad Prism v4.00 using the one-site binding equation [53, 54].

OPPA = conditions: KAK+OPPA; cited from earlier work
MBP [2] = target: T1, MBP; conditions: cited from earlier work
[3] = immobilized MBP on CM5 chip, 25°C, HBS pH 7.4

Substance	KD (SPR determined) (MBP [1]; [3])	further results
GLPKPGGN [MBP-5, computationally designed octapeptide]	CBE	
KAK		experimentally determined binding energy (OPPA): -9.8 kcal/mol
PQYPPHDN [MBP-4, computationally designed octapeptide]	CBE	
WGTNGGTR [MBP-2, computationally designed octapeptide]	CBE	
WHPRPVWE-NH2 [MBP-8]		Kd (MBP [1]; immobilized MBP on CM5 chip, 25°C, HBS pH 7.4, read-out: KD (SPR determined)): 200 ± 5 µM
WSPNFWWR [MBP-7, computationally designed octapeptide]	CBE	
YGDGYFRF [MBP-10, peptide along the minimization path of MBP-9]	No binding	SPR signal variations in the explored concentration range (MBP [1]): did not give valuable signal variations
YHDGYFRF [MBP-11, peptide along the minimization path of MBP-9]	No binding	SPR signal variations in the explored concentration range (MBP [1]): did not give valuable signal variations
maltotriose		experimental binding energy (MBP [2]; compared with the closed configuration score): -9.3 kcal/mol; experimental binding energy (MBP [2]; compared with the open configuration score): -8.4 kcal/mol
